According to patent publication US20100048462A1, “TRUNCATED PTH PEPTIDES WITH A CYCLIC CONFORMATION” (Zealand Pharma A/S, priority 2006, published 2010):
Bridge positions count the residues as written; N and C are the ends. Square brackets hold non-standard residues; d marks the D form. Peptide text beside a SMILES is read from it. hArg = N=C(N)NCCCC[C@H](N)C(=O)O; Ac5c = NC1(C(=O)O)CCCC1; Dab = NCC[C@H](N)C(=O)O; Aib = CC(C)(N)C(=O)O

Assays:
[1] = target: T1, Saos-2 PTH1R (Homo sapiens, UniProt Q03431); test: cAMP-efficacy assay in Saos-2 cells; format: cell-based; details: for potency compared to linear / non-stabilized counterparts, in words / EC50 / pEC50 ± SEM: cAMP; for EC50 / pEC50 ± SEM: 100 μM IBMX, 37° C. 15 min, suffix of label = salt tested; for Emax ± SEM: relative effect to the control (SEQ ID NO: 32)
T1 construct: endogenous in cells; host or cells: Saos-2
T1 sequence (Q03431 27-593): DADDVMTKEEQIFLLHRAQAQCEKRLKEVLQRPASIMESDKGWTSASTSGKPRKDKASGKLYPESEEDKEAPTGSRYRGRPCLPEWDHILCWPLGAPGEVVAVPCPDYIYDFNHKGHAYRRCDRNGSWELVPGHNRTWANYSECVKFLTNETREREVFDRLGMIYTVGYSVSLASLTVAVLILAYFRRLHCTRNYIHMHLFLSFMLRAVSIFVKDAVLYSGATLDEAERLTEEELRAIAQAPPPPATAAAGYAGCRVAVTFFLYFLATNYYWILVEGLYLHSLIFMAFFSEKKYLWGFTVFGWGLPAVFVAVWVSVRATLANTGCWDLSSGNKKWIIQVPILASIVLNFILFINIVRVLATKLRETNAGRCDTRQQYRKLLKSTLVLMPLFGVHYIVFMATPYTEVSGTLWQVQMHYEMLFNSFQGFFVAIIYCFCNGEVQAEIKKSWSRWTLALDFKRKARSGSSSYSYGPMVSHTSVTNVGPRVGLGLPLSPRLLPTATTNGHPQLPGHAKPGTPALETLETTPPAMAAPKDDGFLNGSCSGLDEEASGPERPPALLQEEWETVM
How it was run: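 cAMP accumulation was assayed by FlashPlate after 15 min peptide stimulation at 37 °C of Saos-2 cells in Tyrode's buffer containing 100 μM IBMX and 0.1% BSA, with the reaction stopped by ice-cold HCl. Variable-slope logistic fitting gave EC50/pEC50, Hill coefficient and Emax, with single or triplicate points.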

[2] = target: T2, CYP2D6 (Homo sapiens, UniProt P10635); test: CYP2D6 inhibition in pooled human liver microsomes; format: in vitro ADME; set-up: Pooled human liver microsomes (HLM, final concentration 0.05 mg protein/mL); tissue BD Biosciences 452161; host or cells: pooled human liver microsomes; details: 10 μM compound, dextrorphan formation rate
T2 sequence (P10635 whole entry): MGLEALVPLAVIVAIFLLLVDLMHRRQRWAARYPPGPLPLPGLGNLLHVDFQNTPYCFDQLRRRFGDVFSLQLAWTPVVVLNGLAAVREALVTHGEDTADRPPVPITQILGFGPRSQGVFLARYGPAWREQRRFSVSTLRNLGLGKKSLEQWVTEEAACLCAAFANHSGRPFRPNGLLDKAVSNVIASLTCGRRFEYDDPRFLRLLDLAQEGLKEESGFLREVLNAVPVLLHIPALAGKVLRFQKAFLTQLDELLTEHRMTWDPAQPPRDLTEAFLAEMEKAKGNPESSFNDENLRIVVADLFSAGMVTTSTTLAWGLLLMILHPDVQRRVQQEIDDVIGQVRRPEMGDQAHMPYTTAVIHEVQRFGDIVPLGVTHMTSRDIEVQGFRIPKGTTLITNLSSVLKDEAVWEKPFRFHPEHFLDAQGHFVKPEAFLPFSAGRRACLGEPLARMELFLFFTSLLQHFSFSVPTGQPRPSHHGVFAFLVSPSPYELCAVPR
Description: Stock solutions of the test compounds (1 mM) were prepared in 50% isopropanol or 20% DMSO. Pooled human liver microsomes (HLM, final concentration 0.05 mg protein/mL) were mixed with phosphate buffer (0.1 M potassium phosphate, pH 7.4), CYP2D6 substrate (dextrometrorphan, 5 μM final concentration) and test compound (10 μM), quinidine (0.5 μM) or vehicle (0.2% DMSO or 0.5% isopropanol). The mixture was preincubated for 5 min at 37° C. prior to initiation of the reaction addition of a NADPH regenerating mixture (Final concentration: 1.25 mM NADP^+, 3.3 mM Glucose-6-phosphate, 3.3 mM MgCL2 and 0.4 U/mL glucose-6-phosphat dehydrogenase). After 5 minutes the reaction was stopped by addition of 0.25 volume stop reagent (94% acetonitrile, 6% acetic acid). Each experiment was performed in duplicate or triplicate.
The quantification of CYP2D6 product (dextrorphan) was performed by LC/MS/MS. After centrifugation for 5 min at 10.000 g, 40 μL of the supernatant was injected onto a C8 RP-HPLC column (XterraMS, C8, […], 50×2.1 mm). Dextrorphan was eluted by a linear gradient from 0 to 90% acetonitrile in 0.1% formic acid over 4 min using a flow rate of 0.15 ml/min. The concentration of dextrorphan in the reaction mixture was estimated from the peak area of the MS/MS transition (m/z 258.1>199) using an external calibration curve (Table 8).
The CYP2D6 activity in HLM was calculated as the metabolite formation rate: […]
Where, v is the formation rate, [metabolite] is the detected concentration of dextrorphan (pmol/mL) at the time (t, min) and [protein] is the protein concentration (mg/mL) in the reaction mixture. The influence of the test compounds on the CYP2D6 activity was calculated as % of the activity measured when incubated with the vehicle. The effect of CYP2D6 inhibitor (quinidine) was included as inhibition control within each batch analysis. A reduction in CYP2D6 activity to less than 70% of the vehicle control was considered significant.

[3] = target: Saos-2 PTH1R (UniProt Q03431); test: cell-based or functional assay
[4] = target: T2, CYP2D6; test: cell-based or functional assay

CC[C@H](C)[C@H](NC(=O)[C@H](CCC(=O)O)NC(=O)C(C)(C)NC(=O)[C@@H](NC(=O)C1(N)CCCC1)C(C)C)C(=O)N[C@@H](CCC(N)=O)C(=O)N[C@@H](CC(C)C)C(=O)N[C@@H](CCSC)C(=O)N[C@@H](Cc1c[nH]cn1)C(=O)N[C@@H](CC(N)=O)C(=O)N[C@@H](CC(C)C)C(=O)NCC(=O)N[C@H]1CCCCNC(=O)C[C@@H](C(N)=O)NC(=O)[C@H](CC(N)=O)NC(=O)[C@H](CC(C)C)NC(=O)[C@H](Cc2c[nH]cn2)NC1=O [SEQ ID NO: 34] (H-[Ac5c]V[Aib]EIQLMHNLGKHLND-NH2; lactam 13-17)
potency compared to linear / non-stabilized counterparts, in words [1]: significantly higher potency
EC50 [1]: 214 nM
potency compared to linear / non-stabilized counterparts, in words ([1]; listed as 34): increased potencies
potency compared to linear / non-stabilized counterparts, in words ([1]; listed as SEQ ID NO:34): strikingly higher potency
Emax ± SEM [1]: 1.12 ± 0.09
CYP2D6 activity (% of vehicle) [2]: 107 % of vehicle

CC[C@H](C)[C@H](NC(=O)[C@H](CCC(=O)O)NC(=O)[C@H](CO)NC(=O)[C@@H](NC(=O)[C@@H](N)CO)C(C)C)C(=O)N[C@@H](CCC(N)=O)C(=O)N[C@@H](CC(C)C)C(=O)N[C@@H](CCSC)C(=O)N[C@@H](Cc1c[nH]cn1)C(=O)N[C@@H](CC(N)=O)C(=O)N[C@@H](CC(C)C)C(=O)NCC(=O)N[C@H]1CCCCNC(=O)C[C@@H](C(N)=O)NC(=O)[C@H](CC(N)=O)NC(=O)[C@H](CC(C)C)NC(=O)[C@H](Cc2c[nH]cn2)NC1=O [SEQ ID NO: 36]
pEC50 ± SEM [1]: inactive
CYP2D6 activity (% of vehicle) [2]: 79 % of vehicle

CC[C@H](C)[C@H](NC(=O)[C@H](CCC(=O)O)NC(=O)[C@H](CO)NC(=O)[C@@H](NC(=O)[C@@H](N)CO)C(C)C)C(=O)N[C@@H](CCC(N)=O)C(=O)N[C@@H](CC(C)C)C(=O)N[C@@H](CCSC)C(=O)N[C@@H](Cc1c[nH]cn1)C(=O)N[C@@H](CC(N)=O)C(=O)N[C@@H](CC(C)C)C(=O)NCC(=O)N[C@@H](CCCCN)C(=O)N[C@@H](Cc1c[nH]cn1)C(=O)N[C@@H](CC(C)C)C(=O)N[C@@H](CC(N)=O)C(=O)N[C@@H](CO)C(N)=O [SEQ ID NO: 37, reference compound]
pEC50 ± SEM [1]: inactive
CYP2D6 activity (% of vehicle) [2]: 41 % of vehicle

CC[C@H](C)[C@H](NC(=O)[C@H](CCC(=O)O)NC(=O)C(C)(C)NC(=O)[C@@H](NC(=O)C1(N)CCCC1)C(C)C)C(=O)N[C@@H](CCC(N)=O)C(=O)N[C@@H](CC(C)C)C(=O)N[C@@H](CC(C)C)C(=O)N[C@@H](Cc1c[nH]cn1)C(=O)N[C@@H](CCC(N)=O)C(=O)N[C@@H](CCCCNC(=N)N)C(=O)N[C@@H](C)C(=O)N[C@H]1CCNC(=O)C[C@@H](C(N)=O)NC(=O)[C@H](CC(N)=O)NC(=O)[C@H](CC(C)C)NC(=O)[C@H](Cc2c[nH]c3ccccc23)NC1=O [SEQ ID NO: 41, H-Ac5c-Val-Aib-Glu-Ile-Gln-Leu-Leu-His-Gln-Har-Ala-Dab( )-Trp-Leu-Asn-Asp( )-NH2] (H-[Ac5c]V[Aib]EIQLLHQ[hArg]A[Dab]WLND-NH2; lactam 13-17 (inferred))
EC50 [1]: 64.6 nM
Emax ± SEM [1]: 0.99 ± 0.02
CYP2D6 activity (% of vehicle) [2]: 82 % of vehicle

H-Ac5c-Val-Aib-Glu-Ile-Gln-Leu-Met-His-Gln-Har-Ala-Glu( )-Trp-Leu-Asn-Lys( )-NH2 (peptide)
Emax, cAMP efficacy assay in Saos-2 cells (8T, trifluoroacetate salt) (relative to control (SEQ ID NO: 32)) [3]: 1.07
pEC50, cAMP efficacy assay in Saos-2 cells (8T, trifluoroacetate salt) [3]: 7.94 -log(M)
CYP2D6 activity (% of vehicle), dextrorphan formation rate in human liver microsomes, 10 µM peptide [4]: 99 % of vehicle

H-Ac5c-Val-Aib-Glu-Ile-Gln-Leu-Met-His-Gln-Har-Ala-Lys( )-Trp-Leu-Asn-Asp( )-OH (peptide)
Emax, cAMP efficacy assay in Saos-2 cells (4T, trifluoroacetate salt) (relative to control (SEQ ID NO: 32)) [3]: 1.11
pEC50, cAMP efficacy assay in Saos-2 cells (4T, trifluoroacetate salt) [3]: 7.42 -log(M)
CYP2D6 activity (% of vehicle), dextrorphan formation rate in human liver microsomes, 10 µM peptide [4]: 89 % of vehicle

H-Ac5c-Val-Aib-Glu-Ile-Gln-Leu-Met-His-Glu-Har-Ala-Lys( )-Trp-Leu-Asn-Asp( )-NH2 (peptide)
Emax, cAMP efficacy assay in Saos-2 cells (24T, trifluoroacetate salt) (relative to control (SEQ ID NO: 32)) [3]: 1.4
pEC50, cAMP efficacy assay in Saos-2 cells (24T, trifluoroacetate salt) [3]: 6.9 -log(M)
CYP2D6 activity (% of vehicle), dextrorphan formation rate in human liver microsomes, 10 µM peptide [4]: 83 % of vehicle

H-Ac5c-Val-Aib-Glu-Ile-Gln-Leu-Nle-His-Gln-Har-Ala-Lys( )-Trp-Leu-Asn-Asp( )-NH2 (peptide)
Emax, cAMP efficacy assay in Saos-2 cells (20T, trifluoroacetate salt) (relative to control (SEQ ID NO: 32)) [3]: 0.97
pEC50, cAMP efficacy assay in Saos-2 cells (20T, trifluoroacetate salt) [3]: 8.1 -log(M)
CYP2D6 activity (% of vehicle), dextrorphan formation rate in human liver microsomes, 10 µM peptide [4]: 99 % of vehicle

H-Ac5c-Val-Aib-Glu-Ile-Glu-Leu-Met-His-Gln-Har-Ala-Lys( )-Trp-Leu-Asn-Asp( )-NH2 (peptide)
Emax, cAMP efficacy assay in Saos-2 cells (18T, trifluoroacetate salt) (relative to control (SEQ ID NO: 32)) [3]: 1.24
pEC50, cAMP efficacy assay in Saos-2 cells (18T, trifluoroacetate salt) [3]: 7.29 -log(M)
CYP2D6 activity (% of vehicle), dextrorphan formation rate in human liver microsomes, 10 µM peptide [4]: 89 % of vehicle

H-Ser-Val-Ser-Glu-Ile-Gln-Leu-Met-His-Asn-Leu-Gly-Lys( )-His-Leu-Asn-Asp( )-NH2 (peptide)
CYP2D6 activity (% of vehicle), dextrorphan formation rate in human liver microsomes, 10 µM peptide [4]: 79 % of vehicle

H-Ser-Val-Ser-Glu-Ile-Gln-Leu-Met-His-Asn-Leu-Gly-Lys-His-Leu-Asn-Ser-NH2 (peptide)
CYP2D6 activity (% of vehicle), dextrorphan formation rate in human liver microsomes, 10 µM peptide [4]: 41 % of vehicle

B1: H-Ac5c-V-Aib-…-NH2 (peptide)
chain: H-[Ac5c]V[Aib]EIQLMHNLGKHLNS-NH2
SMILES: CC[C@H](C)[C@H](NC(=O)[C@H](CCC(=O)O)NC(=O)C(C)(C)NC(=O)[C@@H](NC(=O)C1(N)CCCC1)C(C)C)C(=O)N[C@@H](CCC(N)=O)C(=O)N[C@@H](CC(C)C)C(=O)N[C@@H](CCSC)C(=O)N[C@@H](Cc1c[nH]cn1)C(=O)N[C@@H](CC(N)=O)C(=O)N[C@@H](CC(C)C)C(=O)NCC(=O)N[C@@H](CCCCN)C(=O)N[C@@H](Cc1c[nH]cn1)C(=O)N[C@@H](CC(C)C)C(=O)N[C@@H](CC(N)=O)C(=O)N[C@@H](CO)C(N)=O
Emax, cAMP efficacy assay in Saos-2 cells (35T, trifluoroacetate salt) (relative to control (SEQ ID NO: 32)) [3]: 1.2
pEC50, cAMP efficacy assay in Saos-2 cells (35T, trifluoroacetate salt) [3]: 5.09 -log(M)
CYP2D6 activity (% of vehicle), dextrorphan formation rate in human liver microsomes, 10 µM peptide [4]: 48 % of vehicle

B2: H-Ac5c-Val-Aib-Glu-Ile-Gln-Leu-Leu-His-Gln-Har-Ala-Dab( )-Trp-Leu-Asn-Asp( )-NH2 (peptide)
chain: H-[Ac5c]V[Aib]EIQLLHQ[hArg]A[Dab]WLND-NH2
modifications: lactam 13-17
SMILES: CC[C@H](C)[C@H](NC(=O)[C@H](CCC(=O)O)NC(=O)C(C)(C)NC(=O)[C@@H](NC(=O)C1(N)CCCC1)C(C)C)C(=O)N[C@@H](CCC(N)=O)C(=O)N[C@@H](CC(C)C)C(=O)N[C@@H](CC(C)C)C(=O)N[C@@H](Cc1c[nH]cn1)C(=O)N[C@@H](CCC(N)=O)C(=O)N[C@@H](CCCCNC(=N)N)C(=O)N[C@@H](C)C(=O)N[C@H]1CCNC(=O)C[C@@H](C(N)=O)NC(=O)[C@H](CC(N)=O)NC(=O)[C@H](CC(C)C)NC(=O)[C@H](Cc2c[nH]c3ccccc23)NC1=O
Emax, cAMP efficacy assay in Saos-2 cells (41T, trifluoroacetate salt) (relative to control (SEQ ID NO: 32)) [3]: 0.99
pEC50, cAMP efficacy assay in Saos-2 cells (41T, trifluoroacetate salt) [3]: 7.19 -log(M)
CYP2D6 activity (% of vehicle), dextrorphan formation rate in human liver microsomes, 10 µM peptide [4]: 82 % of vehicle
